Biological target: integrin αvβ3 expressed on cells (human) (UniProt P06756)
Test: cell-based or functional assay

Sequence of integrin αvβ3 expressed on cells (human) (P06756 31-1048, chain 1 of 2): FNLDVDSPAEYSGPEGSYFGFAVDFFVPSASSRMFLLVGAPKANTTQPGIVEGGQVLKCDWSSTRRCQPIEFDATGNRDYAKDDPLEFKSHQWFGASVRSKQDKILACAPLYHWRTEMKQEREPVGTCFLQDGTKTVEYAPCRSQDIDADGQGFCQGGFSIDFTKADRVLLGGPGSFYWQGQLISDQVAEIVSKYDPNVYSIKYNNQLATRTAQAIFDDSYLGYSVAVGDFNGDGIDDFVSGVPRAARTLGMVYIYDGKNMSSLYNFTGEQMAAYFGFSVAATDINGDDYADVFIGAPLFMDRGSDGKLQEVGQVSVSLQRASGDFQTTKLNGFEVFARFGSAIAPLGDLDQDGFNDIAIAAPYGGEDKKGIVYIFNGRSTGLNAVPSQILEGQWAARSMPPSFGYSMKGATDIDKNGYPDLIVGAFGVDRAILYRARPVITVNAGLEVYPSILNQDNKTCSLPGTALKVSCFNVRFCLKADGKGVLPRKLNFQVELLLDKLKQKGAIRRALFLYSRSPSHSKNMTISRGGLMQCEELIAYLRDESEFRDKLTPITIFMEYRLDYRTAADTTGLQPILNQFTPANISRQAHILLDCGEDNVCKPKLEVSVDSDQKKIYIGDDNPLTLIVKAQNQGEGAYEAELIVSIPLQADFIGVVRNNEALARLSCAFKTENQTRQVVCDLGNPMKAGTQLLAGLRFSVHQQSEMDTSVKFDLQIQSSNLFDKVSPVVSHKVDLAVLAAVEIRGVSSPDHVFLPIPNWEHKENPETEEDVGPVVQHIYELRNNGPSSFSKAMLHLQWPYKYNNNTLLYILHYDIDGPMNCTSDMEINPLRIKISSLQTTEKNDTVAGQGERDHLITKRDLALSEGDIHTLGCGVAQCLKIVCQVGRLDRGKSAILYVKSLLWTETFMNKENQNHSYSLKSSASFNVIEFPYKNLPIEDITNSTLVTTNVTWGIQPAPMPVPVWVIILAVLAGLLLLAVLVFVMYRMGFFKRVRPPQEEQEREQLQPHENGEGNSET
Sequence of integrin αvβ3 expressed on cells (human) (P05106 27-788, chain 2 of 2, further chain): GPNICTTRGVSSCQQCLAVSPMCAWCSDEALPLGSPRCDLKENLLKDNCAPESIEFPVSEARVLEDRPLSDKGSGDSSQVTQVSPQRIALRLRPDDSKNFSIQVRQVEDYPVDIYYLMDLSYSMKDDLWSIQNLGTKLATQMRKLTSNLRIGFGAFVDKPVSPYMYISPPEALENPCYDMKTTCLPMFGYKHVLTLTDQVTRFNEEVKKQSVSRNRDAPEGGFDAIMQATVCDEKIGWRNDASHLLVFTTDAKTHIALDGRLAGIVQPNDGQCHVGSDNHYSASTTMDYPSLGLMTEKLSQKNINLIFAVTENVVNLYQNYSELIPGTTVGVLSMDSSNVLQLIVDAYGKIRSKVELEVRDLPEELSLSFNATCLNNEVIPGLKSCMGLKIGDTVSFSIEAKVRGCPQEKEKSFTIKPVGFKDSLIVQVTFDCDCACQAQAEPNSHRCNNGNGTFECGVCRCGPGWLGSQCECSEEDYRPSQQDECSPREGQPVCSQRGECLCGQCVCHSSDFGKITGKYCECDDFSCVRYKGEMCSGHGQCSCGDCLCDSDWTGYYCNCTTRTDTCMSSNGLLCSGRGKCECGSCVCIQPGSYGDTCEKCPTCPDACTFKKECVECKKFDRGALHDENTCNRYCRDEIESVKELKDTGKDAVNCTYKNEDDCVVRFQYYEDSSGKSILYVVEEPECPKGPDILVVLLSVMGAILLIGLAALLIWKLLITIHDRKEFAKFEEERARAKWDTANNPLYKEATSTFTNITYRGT

monoclonal antibody LM609 (murine IgG)
inhibition of vitronectin-induced migration of endothelial cells (transwell): 60%
inhibitory concentration for 50% maximal adhesion (M21 cell adhesion to fibrinogen): 50 ng/mL

— patent publication US20030028009A1
